The data set in a line: soluble on expression in E. coli; label from the status in PepcDB or PDB records.
For the sequence “MSLRPGIKALAEATGYSIATVSKALNGSPMVAPATKALIHRAAADIGYRANARGMALRTGRTCQAAVLMPVTAARDYEWDGVEYTQILSGISQALEGSDYRMSVHVVRNVEDGCEVARRIIDEGLADGLIFSGIRADDPRIDLLDESRFPFVSLGRCRKPLDYAHVDIDNEWAAHAATARLIAGGHRRIALVNPLRHLSYAEDRVDGFLRAFREANLSPSDDLIAEGDLSTHFGRESALGLLDAARPPTAFVCSNESTTLGVLSGLGSRGRRIGVDVDVVAYDDINVSAYFTPPITTFYQPIEVLGRTLGEFLLRRMAGEDARSLKQVFRPRLIERQPDSLGGREGHHHHHH”, the “soluble on expression in E. coli” value is given as “soluble”.
With “MSLRPTMTDIAKLTGVSQSTVSLVLNNATGAKFSETTRNKVLKAAHDLGYRLSLREPVSASADERNLIVYLADEISTSPHPVVNIDGARDAAYASGKMLAVYSTHGNADIEKQVLDTTLSNPHVFGVIYATVYTRKVTPPAALSQVPTVLLNCYTGEGGFSSVVPAEVAGGHLATDYLLQSGHRRIGYINGEPWQDASKDRLKGYRTALATADLPFAQEMVRDGDWSSGLGFELTLSLMRESNPPTAIFCANDLTAIGAIEALKQLGLRVPEDVSVLGYDDQEIARHTHPPLSTVVLPNYELGRWAVETLLQEEHNRAAGAPVRHRMVKLDGPLVERGSVRVITEAKEGHHHHHH”, the “soluble on expression in E. coli” value was “soluble”.
With “MSLRTASVIVDLPTRQTNQPFTYLIPDDLLDFNLLGHRVRVPFGKRNLMGYVVAVGQSERSDFQLKKIESIIDEKPVLNSEMLKLSEWLSNYVFSYRVQVIQTILPNAFKPKYLKGLKIVDQVPEKIKENIFLNNQEIEFLPKNYTSEQIKVINSLIRQGKIVQTTTIQKKNKGKKVKVLSNNLNDNDIATNLNKKSLSDSQKKLLIFLSGHRDGFFQVKELAEILDISKSTILTAEKKSWLKKSEVRMTRNPVKKIAVTKTNAVELNSDQKKVFNSVESAITKNENKTFLLEGITGSGKTEVYLQLIEKTIAQGKTALLLVPEIALTPQMIRLVKSRFLDSVALLHSGLSDGERLDQWEEIRDGKIKIVIGTRSAVFSPLTNIGLIIMDEEHETNYKQEGNPRYHARDIALWRAKYHQAVTLLGSATPSLESRARAQKGIFKLLTMNHRAVSGAKLPDVSIVDMREVWQKEHADNDFSPTLLKKIEERKENHEQTILLLNRRGFSSFVMCRNCGYVPRCPNCNLSLTLHMDSHSLKCHYCGYEEAIPKKCPVCGSPQIRYVGTGTEKIETKLNSLVNGIRVARLDQDTTKRKGSLEKILRDFGKGNYDVLLGTQMVAKGLDFPDVTLVGVINADIGLNLPDFRSGEKTFQLLTQVAGRSGRAGKTGEVIIQTFNPDNYAIKLAADQNYEGFYKTEMSIRHIADYSPYYYTIQVGIDGPDQFPASRAIDEVAEFIKPKLAKETIVLGPTPKAIAKLRNRYYFQIILKYKKDPNIESTLSELQTVFGEKLPKDIYLSIDRDPVSEGHHHHHH”, the “soluble on expression in E. coli” value is recorded as “soluble”.
On to “MSLRTMLTQKFVVDSMLGKIARWLRIMGYDTLYSNDFEDWKILKIAETQKRIIITRDRGIYYRSLKRGLNCILLSPDSNIIQDLAFIALRSKIDLSVNINATRCPQCNSVLSKLSESMWLCPKCKKEYWKGRHWRTIEEIIIKANSELVKLETKNDSRGTGTDTGVKRRDRTVTNRNSEGHHHHHH”, for which the “soluble on expression in E. coli” value was “soluble”.
With “MSLRVDTLIRGGVVLTMDGDFTRHDAGYVAVTGGRISHVGADADAAGLSAERVIDAEGGIILPGFVNTHCHAAMTLFRGLADDVDLDGFLRTVWRAEAEHIGPASVELGAELAIAEMALSGVTHFLDMYWYPEATIAAAQRVGMGLTSGPPMLNVEGVDGMGWAERMAYTEGFLERYSGVDGVQPMLLPHGCYTLDADKLAEIANLARAAGCGVHIHAAEAAWEMQLVRDAYGTTPVRALERAGLLEQPLLLAHAVHLDGEEIALLADAGAGVAHCPLSNAKLASGMAPIGEMRASGVTLSLGTDGPASGNDLDMFATMRLAALVHNLRSGTSDTLPARDLVAMATSGGAMALGLGARTGSLEVGKQADITVVATDAPHNVPSYCPYSTLVFSAGRSEVRHVLARGRALVADGRPTTPTEPVKAEVRRLAADIANRRDEGHHHHHH”, the “soluble on expression in E. coli” value was “soluble”.
“MSLRVFVCGCVHGSWDIVVDEVNKLVENGTKLDLIIVAGDLEAFITESDLLSYKRPNGTQGFGSFHKIANGEKHLPCKMLVIGGNNESTDIIFQLPFGGWITPDVYFAGRASQIYFGDLLITCTSGVYNVKNYWKKVYEHFPVRKKECYSVNHTRAFSNFQVYGLTQLNIFVTHDWPSGIPKMFRDIIPKKSLVDSDDSNDFGMQDYRKILEKKQPKYWFAAHHHIKFECEPNPGTKFIAVPRVIQDNWYSLQTFDEKPGDFMISGEWINILKKTEEYMKDPSVLKDIDWDEEWTKINSLPSADLPIKVPVMEYNNDYKVQTAKFCETYGIYNPNEGHHHHHH”: the “soluble on expression in E. coli” value is “soluble”.
As for “MSLRVIDTHCDALYKLQAGKGKYTFQDAEELDVNFERLIEAKMLLQGFAIFLDEDIPVEHKWKKAVEQVNIFKQHVLHKGGIIHHVKKWCDLENLPEDKIGAMLTLEGIEPIGRDLDKLTQLLDGGVLSVGLTWNNANLAADGIMEERGAGLTRFGKDIIHLLNERKVFTDVSHLSVKAFWETLEQAEFVIASHSSAKAICAHPRNLDDEQIKAMIEHDAMIHVIFHPLFTTNDGVADIEDVIRHIDHICELGGMKNIGFGSDFDGIPDHVKGLEHAGKYQNFLETLGKHYTKEEVEGFASRNFLNHLPKEGHHHHHH”, the “soluble on expression in E. coli” value was “soluble”.
As for “MSLRVLVMVNDFPNKDNSYTANIFVKEQVKALSEFVEEINVIVPIPRGIELYRKTSYRDYAIGENVHVHFVKYINPLFPIAYSKLRREWIWLEHRALTNFIKKKDIKFDIIHAHYTWPSGAVGVKLKEEYKVPLVITEHTSQTFNRYITTRDPLAREIWQKADIIVRVRKGDIDLFSRVGITPSKIRYIPNGFDGNKFYPIPQEIARRKLNLVEYEKIIINVANMYSRVKGHEYLLRAFSKVAENTSDAFLILVGSGKLLSHLKKLADNLYLGHRVLFAGSKPHDEIPLWMNAADLFVLPSLRESFGVVQIEAMACGVPVVATRNGGSEEIIISEDYGLLCEPANPKELAEKILIALEKEWDREKIRKYAEQFTWENIAKKTLEVYRGVLKEGHHHHHH”, the “soluble on expression in E. coli” value is given as “soluble”.
In the case of “MSLSDARLVADLSDVFTDIGVEHAVSGAQIEEFVARMPEVGHSLVAVHRRLRAATEELEGYRSRATAETELPPARPMPFEEVRDFFYDRNNYIHDLDMAAERMFTESGMRTGGLDIQLAELMRDRFGISVVIDDNLPDTAKRRYHPDTKVLRVAHWLMPGQRAFQIATQLALVGQSDLISSIVATDDQLSTEARGVARIGLANYFAGAFLLPYREFHRAAEQLRYDIDLLGRRFGVGFETVCHRLSTLQRPRQRGIPFIFVRTDKAGNISKRQSATAFHFSRVGGSCPLWVVHDAFAQPERIVRQVAQMPDGRSYFWVAKTTAADGLGYLGPHKNFAVGLGCDLAHAHKLVYSTGVVLDDPSTEVPIGAGCKICNRTSCAQRAFPYLGGRVAVDENAGSSLPYSSTEQSVEGHHHHHH”, the “soluble on expression in E. coli” value was “soluble”.
On to “MSLSDVAKKVGVSPITISRALRNPEIVSEDLRQTILRTVDEMGYIPNLAARALAGRHNGTVGVITPALHQHGFAGLMLGIEDRLRATEFGVQYSNTLHHADGEAGQLKSFLMQKPAGVIIAGAESYHDLLPLIEKAACPIAHITDLSQEPERLVVGLDHHAAGAEPTRFLLSRGYQRIGFIGGGTDVRSRRRREGYEAAMREAGRFDPDLAIGADAAGTTGLGRELLTRLLARVPDIDAVFAQNDELALGVLIECGVRGIRVPENFGICGFNDLEFSAFTEPSLTTVHIPRYEVGYRVADMLLRAVRSEPPGEEKVDCGFSVIPRGSTREGHHHHHH”, for which the “soluble on expression in E. coli” value was “soluble”.
As to “MSLSDWIDASFTTKQTDAAKSSSQTKPKSVNQVKLDVPLVNQMTTPRLYNGCEVTSLTMLMNYAHINVTKNELAAKITSVPLTYSDGEHGNPEYGFVGDITGNDPGLGVYHKPIYKLAKTETSQVKDLTGANFDTVIEQLEQGRPVWTITTASFAPVSTMQTWQTPQGSVKVTYDMHSVVIVGFNRTKKLIYINNPYGEKQQAVSWKNFEAAYNQMGKQAIVLTLPHEGHHHHHH”, the “soluble on expression in E. coli” value is reported as “soluble”.
Then “MSLSEALERLIDQGVGREPADIVLKGGRFFDLVTGELVASDIAISGERIVGTCGDYEGREEIDVTGRIVVPGFIDTHLHIESSLVTPHEFDRCVLPLGITTVVCDPHEIANVLGTEGIQYFLDSAMETVMDIRVQLSSCVPATHLETSGADLPVGRLTPFRHHPKVIGLAEFMNFPGVVNKDPVCLAKLDAFQDGHIDGHAPLLRGKELNGYLAAGIRTDHECTSAEEALEKIRKGMHILVREGSVSKDLQALMPILTERLSPYLALCTDDRNPLDIAEQGHLDNMIRTAISAGVEPLAIYRAASISAARAFGLRDRGLVAPGWRADLVIVDSLENCKAELVLSAGRRVTDALFAGRKPVEPVGLDSVKAREVKAADFGLPYNEGETSVLGVLPGKIITEHRRYRLPAEGNRTGVDLDRDIIKVAVIERHGVNGNHANGFVQGFGLKKGAIASTVGHDSHNICVVGVNDDDMALAVNRLGEIKGGFVVVHDGKVTGEIALPVAGLMSLEPYERVRDTLHHLRQAAFALGATLEEPFLQLAFLPLPVIPHLKISDRGLVDVDRFMLIGEGHHHHHH”, with “soluble”; and “MSLSEKMRRIVEAAGGIVWRWKAGSDIANDPAIASSKSAQEQLDSIEVCIVHRPKYDDWSWPKGKLEQNETHRHAAVREIGEETGSPVKLGPYLCEVEYPLSEEGKKTRHSHDCTADTKHTLYWMAQPISADDAEHLLDAFGPVHRADVGEINDIVWVSVREARKILSHSTDKDTLAVFVDRVQEGAATAQNLLIVRHAKAESRKSWKGTDANRPITPKGAAMAFALNRELACFNPTRLATSPWLRCQETLQVLSWQTERPMEHINTLTEDAFAEHPAVSWLAFREQITQTLNSRETTAICMHRPVIGGMYDHLRGLCARKQLAKQLIAKSPYMPTGTAMSLFIIDTPQGPSIIDIQKVSPIVYEGHHHHHH”, with “soluble”; and “MSLSETLRLGLICAGRMGSFHGQTAALRIPGACLAAIADPTPGQAARLATELGVERFYTDPQQLLDDPDIDGVLIAAPARSHAELVISAARAGKGVFCEKPMAITLDEADRAIAAAADAQVTLQVGFNRRFAKSFRTAHLDVVAGRIGTPQLLRSLTRDPALNNPAASPQWVIFLETLIHDFDSLRYLNPGAEAVEVFVMADALIAPDYKSKGFLDTAVVTIRFDNGAIATAEANFQAVYGYDVRGEVFGSAGMLTMGSVNDSDLVRYLANGIQSDTQRLDTDLLRDAYVAELNHFADCLRTGAKPLASGEDARAALAIARACIESFQLGKAVRVEGARSEGHHHHHH”, with “not soluble”.
Turning to “MSLSIALIAPYESLATLCRSICQELDLDVSVHTGSMEDGVRIARNLMAEGVDFFISRGLTAQLIREQCPLPVAELEVSAFDIYLCLEPLLRSGKSIGVVGHSDILRKAKGASAALGFTIDFYATAHPGGMGHIMEAARRQGIAAIAGDAVAARTAERYGMEGVLVQNGADSVTNTLQYAVATYSYLTRQATMAGRLQTVLDRMDGGALLASPDGRMLHCNAAVRAMLEPDQGCTETSMDDLFPQLDWRAVPEGRAETVRELVTVGGSKLAVTVTGTMHDDAMDALICTFHDVRQIEQLEHSFRKSEGHHHHHH”, the “soluble on expression in E. coli” value is on record as “soluble”.
As for “MSLSIPTIKQVRAFVLRGGGADYHDQGDGHWIDDHISTPMGKYPEYRQSRRSFGINVLGTLVVEIEASDGNVGFAVTTGGEPAAYIVEKHLARFLEGARVTDIERIWDQMYNSTLYYGRKGLVINTISGVDLALWDLLGKVRREPVHQLLGGAVRDELQFYATGARPDLAQKMGFIGGKMPLHHGPSEGEEGLKKNLEELATMRERVGPDFWLMFDCWMSLDLNYATRLARGAREYGLKWIEEALPPDDYWGYAELRRNAPTGMMVTTGEHEATRWGFRMLLEMGCCDIIQPDVGWCGGVTELLKISALADAHNALVVPHGSSVYSYHFVATRQNSPFAEFLMMAPKADQVVPMFHPQLLGEPVPENGRMRLSRLDQPGFGVTLNPECQLHRPYTHEGHHHHHH”, the “soluble on expression in E. coli” value is “soluble”.

The values above are taken from the DeepSol protein solubility set.
